In data set [1] the target is T1, YciA (Escherichia coli, UniProt P0A8Z0).
T1 sequence (P0A8Z0 1-132): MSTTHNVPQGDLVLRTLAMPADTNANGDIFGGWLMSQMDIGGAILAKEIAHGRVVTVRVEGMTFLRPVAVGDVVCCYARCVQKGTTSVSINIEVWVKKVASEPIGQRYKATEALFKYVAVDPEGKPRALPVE
The data set is described as follows: thioesterase activity assay. Type of data set: biochemical. The conditions noted are these: racemic mandelyl-CoA 0.5 mM, YciA 2 μM.

In data set [2] the target is HACLHs (Homo sapiens, UniProt Q9UJ83). The data set is described as follows: carboligation, LC-MS product analysis after […] h. Type of data set: biochemical. The conditions noted are these: formyl-CoA 1 mM as C1 donor, aldehyde 10 mM, enzyme 5 μM.
HACLHs, sequence (Q9UJ83 whole entry): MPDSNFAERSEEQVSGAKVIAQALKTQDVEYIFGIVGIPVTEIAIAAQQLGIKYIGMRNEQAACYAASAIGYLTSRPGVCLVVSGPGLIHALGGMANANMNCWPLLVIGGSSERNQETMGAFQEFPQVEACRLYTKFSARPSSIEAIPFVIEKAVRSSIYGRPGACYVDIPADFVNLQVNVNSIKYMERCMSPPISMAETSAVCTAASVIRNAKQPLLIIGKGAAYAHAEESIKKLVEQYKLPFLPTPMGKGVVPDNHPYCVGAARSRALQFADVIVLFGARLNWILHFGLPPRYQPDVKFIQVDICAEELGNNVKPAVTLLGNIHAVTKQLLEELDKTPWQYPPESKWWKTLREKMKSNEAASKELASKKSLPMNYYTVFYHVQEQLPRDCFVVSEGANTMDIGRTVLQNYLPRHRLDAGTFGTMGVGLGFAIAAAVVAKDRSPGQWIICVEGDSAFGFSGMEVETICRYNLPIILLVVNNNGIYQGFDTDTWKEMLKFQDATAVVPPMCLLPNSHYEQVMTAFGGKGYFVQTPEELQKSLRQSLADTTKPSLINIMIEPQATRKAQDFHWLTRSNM
Substrate in data set [3]: CC(C)(COP(=O)(O)OP(=O)(O)OC[C@H]1O[C@@H](n2cnc3c(N)ncnc32)[C@H](O)[C@@H]1OP(=O)(O)O)[C@@H](O)C(=O)NCCC(=O)NCCSC(=O)C(=O)O
Put plainly: purified protein. The note with it: decarboxylation to formyl-CoA; ThDP-dependent.

As for `CC(C)(COP(=O)(O)OP(=O)(O)OC[C@H]1O[C@@H](n2cnc3c(N)ncnc32)[C@H](O)[C@@H]1OP(=O)(O)O)[C@@H](O)C(=O)NCCC(=O)NCCSC(=O)C(O)c1ccccc1` (stereo partly drawn) [mandelyl‐CoA], the thioesterase activity assay result in data set [1] is given as “YciA showed relatively high mandelyl‐CoA thioesterase activity”.

For the molecule `CC(C)(COP(=O)(O)OP(=O)(O)OC[C@H]1O[C@@H](n2cnc3c(N)ncnc32)[C@H](O)[C@@H]1OP(=O)(O)O)[C@@H](O)C(=O)NCCC(=O)NCCSC=O` [formyl‐CoA], the “carboligation, LC-MS product analysis after 1 h” value in data set [2] was “HACLHs and OXCMe are able to perform nucleophilic C1‐extension reactions of different aldehydes with formyl‐CoA”.

B1: OXCMe (Methylorubrum extorquens AM1) (protein)
chain: MTVQAQNIDAITAGAMPHEEPELTDGFHLVIDALKLNGIETIYNVPGIPITDLGRLAQAEGLRVISFRHEQNAGNAAAIAGFLTKKPGICLTVSAPGFLNGLTALANATTNCFPMILISGSSEREIVDLQQGDYEEMDQLAIAKPLCKAAFRVLHAADIGIGVARAIRAAVSGRPGGVYLDLPAKLFSQVIDADLGARSLVKVIDAAPAQLPAPAAIARALDVLKSAERPLIILGKGAAYAQADEAVRALVEESGIPYVPMSMAKGLLPDTHPLSAGAARSTALKDSDVVLLVGARLNWLLSHGKGKTWGEPGSKRFIQIDIEPREMDSNVEIVAPVVGDIGSCVEALLDGIRKDWKGAPSNWLETLRGKREANIAKMAPKLMKNSSPMCFHSALGALRTVIKERPDAILVNEGANTLDLARGIIDMYQPRKRLDVGTWGVMGIGMGFAVAAAVETGKPVLAVEGDSAFGFSGMEVETICRYELPVCIVIFNNNGIYRGTDTDPTGRDPGTTVFVKNSRYDKMMEAFGGVGVNVTTPDELKRAVDEAMNSGKPTLINAEIDPAAGSESGNIGSLNPQSTLKKK
For B1, in data set [3], the Km stood at 105 ± 11 µM, the kcat was determined as 98 ± 3 s⁻¹ and the kcat/Km amounted to 930000 M⁻¹ s⁻¹.

B2: OXCMe (Methylorubrum extorquens AM1; S568A/Y497A) (protein)
chain: MTVQAQNIDAITAGAMPHEEPELTDGFHLVIDALKLNGIETIYNVPGIPITDLGRLAQAEGLRVISFRHEQNAGNAAAIAGFLTKKPGICLTVSAPGFLNGLTALANATTNCFPMILISGSSEREIVDLQQGDYEEMDQLAIAKPLCKAAFRVLHAADIGIGVARAIRAAVSGRPGGVYLDLPAKLFSQVIDADLGARSLVKVIDAAPAQLPAPAAIARALDVLKSAERPLIILGKGAAYAQADEAVRALVEESGIPYVPMSMAKGLLPDTHPLSAGAARSTALKDSDVVLLVGARLNWLLSHGKGKTWGEPGSKRFIQIDIEPREMDSNVEIVAPVVGDIGSCVEALLDGIRKDWKGAPSNWLETLRGKREANIAKMAPKLMKNSSPMCFHSALGALRTVIKERPDAILVNEGANTLDLARGIIDMYQPRKRLDVGTWGVMGIGMGFAVAAAVETGKPVLAVEGDSAFGFSGMEVETICRYELPVCIVIFNNNGIARGTDTDPTGRDPGTTVFVKNSRYDKMMEAFGGVGVNVTTPDELKRAVDEAMNSGKPTLINAEIDPAAGSEAGNIGSLNPQSTLKKK
For the molecule B2, in data set [3], the Km was found to be 103 ± 15 µM, the kcat was 0.32 ± 0.01 s⁻¹ and the kcat/Km was 3100 M⁻¹ s⁻¹.

B3: OXCMe (Methylorubrum extorquens AM1; S568A) (protein)
chain: MTVQAQNIDAITAGAMPHEEPELTDGFHLVIDALKLNGIETIYNVPGIPITDLGRLAQAEGLRVISFRHEQNAGNAAAIAGFLTKKPGICLTVSAPGFLNGLTALANATTNCFPMILISGSSEREIVDLQQGDYEEMDQLAIAKPLCKAAFRVLHAADIGIGVARAIRAAVSGRPGGVYLDLPAKLFSQVIDADLGARSLVKVIDAAPAQLPAPAAIARALDVLKSAERPLIILGKGAAYAQADEAVRALVEESGIPYVPMSMAKGLLPDTHPLSAGAARSTALKDSDVVLLVGARLNWLLSHGKGKTWGEPGSKRFIQIDIEPREMDSNVEIVAPVVGDIGSCVEALLDGIRKDWKGAPSNWLETLRGKREANIAKMAPKLMKNSSPMCFHSALGALRTVIKERPDAILVNEGANTLDLARGIIDMYQPRKRLDVGTWGVMGIGMGFAVAAAVETGKPVLAVEGDSAFGFSGMEVETICRYELPVCIVIFNNNGIYRGTDTDPTGRDPGTTVFVKNSRYDKMMEAFGGVGVNVTTPDELKRAVDEAMNSGKPTLINAEIDPAAGSEAGNIGSLNPQSTLKKK
For B3, in data set [3], the Michaelis constant (Km) is 23 ± 2 µM.

B4: OXCMe (Methylorubrum extorquens AM1; Y497A) (protein)
chain: MTVQAQNIDAITAGAMPHEEPELTDGFHLVIDALKLNGIETIYNVPGIPITDLGRLAQAEGLRVISFRHEQNAGNAAAIAGFLTKKPGICLTVSAPGFLNGLTALANATTNCFPMILISGSSEREIVDLQQGDYEEMDQLAIAKPLCKAAFRVLHAADIGIGVARAIRAAVSGRPGGVYLDLPAKLFSQVIDADLGARSLVKVIDAAPAQLPAPAAIARALDVLKSAERPLIILGKGAAYAQADEAVRALVEESGIPYVPMSMAKGLLPDTHPLSAGAARSTALKDSDVVLLVGARLNWLLSHGKGKTWGEPGSKRFIQIDIEPREMDSNVEIVAPVVGDIGSCVEALLDGIRKDWKGAPSNWLETLRGKREANIAKMAPKLMKNSSPMCFHSALGALRTVIKERPDAILVNEGANTLDLARGIIDMYQPRKRLDVGTWGVMGIGMGFAVAAAVETGKPVLAVEGDSAFGFSGMEVETICRYELPVCIVIFNNNGIARGTDTDPTGRDPGTTVFVKNSRYDKMMEAFGGVGVNVTTPDELKRAVDEAMNSGKPTLINAEIDPAAGSESGNIGSLNPQSTLKKK
In the case of B4, in data set [3], the Km was determined as 180 ± 17 µM, the kcat worked out at 1.32 ± 0.04 s⁻¹ and the kcat/Km worked out at 7300 M⁻¹ s⁻¹.

The Km is the substrate concentration at which the rate is half of its maximum. Usually kcat stands for the number of substrate molecules converted per active site and unit of time at saturation. By kcat/Km is commonly meant the second-order rate constant that governs catalysis at low substrate concentration.
